Results from IntAct's records for PubMed 15214843.

B1: Septin-5 (Homo sapiens), Q99719 (parent)
chain: MSTGLRYKSKLATPEDKQDIDKQYVGFATLPNQVHRKSVKKGFDFTLMVAGESGLGKSTLVHSLFLTDLYKDRKLLSAEERISQTVEILKHTVDIEEKGVKLKLTIVDTPGFGDAVNNTECWKPITDYVDQQFEQYFRDESGLNRKNIQDNRVHCCLYFISPFGHGLRPVDVGFMKALHEKVNIVPLIAKADCLVPSEIRKLKERIREEIDKFGIHVYQFPECDSDEDEDFKQQDRELKESAPFAVIGSNTVVEAKGQRVRGRLYPWGIVEVENQAHCDFVKLRNMLIRTHMHDLKDVTCDVHYENYRAHCIQQMTSKLTQDSRMESPIPILPLPTPDAETEKLIRMKDEELRRMQEMLQRMKQQMQDQ
partner: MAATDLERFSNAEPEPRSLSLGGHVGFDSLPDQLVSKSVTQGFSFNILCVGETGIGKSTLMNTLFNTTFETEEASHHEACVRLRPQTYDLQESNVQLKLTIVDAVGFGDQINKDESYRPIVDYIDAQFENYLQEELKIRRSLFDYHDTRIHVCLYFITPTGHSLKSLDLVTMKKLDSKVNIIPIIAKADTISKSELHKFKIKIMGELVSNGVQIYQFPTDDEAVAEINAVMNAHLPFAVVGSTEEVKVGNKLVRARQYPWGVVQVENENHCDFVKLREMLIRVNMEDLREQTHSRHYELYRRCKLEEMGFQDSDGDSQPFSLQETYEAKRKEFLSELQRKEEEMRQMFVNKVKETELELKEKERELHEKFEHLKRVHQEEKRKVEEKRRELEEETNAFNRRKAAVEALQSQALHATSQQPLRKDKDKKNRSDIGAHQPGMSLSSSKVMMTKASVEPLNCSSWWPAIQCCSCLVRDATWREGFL

Variants of: B1
Conditions: with sept8_human SEPTIN8, Q92599

| effect of a mutation on the interaction | Variant |
| --- | --- |
| with no effect | MSTGLRYKSKLATPEDKQDIDKQYVGFATLPNQVHRKAVKKGFDFTLMVAGESGLGKSTLVHSLFLTDLYKDRKLLSAEERISQTVEILKHTVDIEEKGVKLKLTIVDTPGFGDAVNNTECWKPITDYVDQQFEQYFRDESGLNRKNIQDNRVHCCLYFISPFGHGLRPVDVGFMKALHEKVNIVPLIAKADCLVPSEIRKLKERIREEIDKFGIHVYQFPECDSDEDEDFKQQDRELKESAPFAVIGSNTVVEAKGQRVRGRLYPWGIVEVENQAHCDFVKLRNMLIRTHMHDLKDVTCDVHYENYRAHCIQQMTSKLTQDSRMESPIPILPLPTPDAETEKLIRMKDEELRRMQEMLQRMKQQMQDQ [S38A] |
| with no effect | MSTGLRYKSKLATPEDKQDIDKQYVGFATLPNQVHRKSVAAGFDFTLMVAGESGLGKSTLVHSLFLTDLYKDRKLLSAEERISQTVEILKHTVDIEEKGVKLKLTIVDTPGFGDAVNNTECWKPITDYVDQQFEQYFRDESGLNRKNIQDNRVHCCLYFISPFGHGLRPVDVGFMKALHEKVNIVPLIAKADCLVPSEIRKLKERIREEIDKFGIHVYQFPECDSDEDEDFKQQDRELKESAPFAVIGSNTVVEAKGQRVRGRLYPWGIVEVENQAHCDFVKLRNMLIRTHMHDLKDVTCDVHYENYRAHCIQQMTSKLTQDSRMESPIPILPLPTPDAETEKLIRMKDEELRRMQEMLQRMKQQMQDQ [K40A;K41A] |
| disrupting interaction strength | MSTGLRYKSKLATPEDKQDIDKQYVGFATLPNQVHRKSVKKGFDFTLMVAGESGLGKNTLVHSLFLTDLYKDRKLLSAEERISQTVEILKHTVDIEEKGVKLKLTIVDTPGFGDAVNNTECWKPITDYVDQQFEQYFRDESGLNRKNIQDNRVHCCLYFISPFGHGLRPVDVGFMKALHEKVNIVPLIAKADCLVPSEIRKLKERIREEIDKFGIHVYQFPECDSDEDEDFKQQDRELKESAPFAVIGSNTVVEAKGQRVRGRLYPWGIVEVENQAHCDFVKLRNMLIRTHMHDLKDVTCDVHYENYRAHCIQQMTSKLTQDSRMESPIPILPLPTPDAETEKLIRMKDEELRRMQEMLQRMKQQMQDQ [S58N] |
